# Results published in the Immune Epitope Database (IEDB).
# Key:
# HLA-A*01:01 [1] = assay: IEDB peptide-MHC binding, purified MHC/competitive/fluorescence; filed as Kd, often an IC50 or EC50 that approximates it; ≥ and ≤ were set here for values at or beyond the usual limits of such assays; details: source organism: Yersinia pestis Antiqua
# HLA-A*26:01 = assay: as above; details: source organism: Yersinia pestis Antiqua
# HLA-B*35:01 [2] = assay: as above; details: source organism: Yersinia pestis Antiqua
# HLA-C*12:03 = assay: IEDB peptide-MHC binding, purified MHC/direct/fluorescence; filed as Kd, often an IC50 or EC50 that approximates it; ≥ and ≤ were set here for values at or beyond the usual limits of such assays
# HLA-A*31:01 [3] = assay: IEDB peptide-MHC binding, purified MHC/competitive/fluorescence; filed as Kd, often an IC50 or EC50 that approximates it; ≥ and ≤ were set here for values at or beyond the usual limits of such assays
# HLA-A*03:01 [4] = assay: IEDB peptide-MHC binding, purified MHC/direct/fluorescence; filed as Kd, often an IC50 or EC50 that approximates it; ≥ and ≤ were set here for values at or beyond the usual limits of such assays
# HLA-A*11:01 [5] = assay: as above
# HLA-A*01:01 [6] = assay: IEDB peptide-MHC binding, purified MHC/competitive/radioactivity; filed as Kd, often an IC50 or EC50 that approximates it; ≥ and ≤ were set here for values at or beyond the usual limits of such assays; details: source organism: Hepatitis C virus (isolate H)
# HLA-A*02:02 = assay: as above
# HLA-B*40:02 = assay: as above; details: source organism: Hepatitis C virus (isolate H)
# HLA-B*44:02 = assay: as above; details: source organism: Hepatitis C virus (isolate H)
# HLA-B*53:01 = assay: as above
# HLA-A*02:06 = assay: as above
# HLA-B*35:01 [7] = assay: as above
# HLA-A*02:01 = assay: as above
# HLA-A*03:01 [8] = assay: as above
# HLA-B*40:01 = assay: as above; details: source organism: Hepatitis C virus (isolate H)
# HLA-B*44:03 = assay: as above; details: source organism: Hepatitis C virus (isolate H)
# HLA-A*31:01 [9] = assay: as above
# HLA-B*54:01 = assay: as above
# HLA-B*51:01 [10] = assay: as above
# HLA-A*68:01 = assay: as above
# HLA-A*02:03 = assay: as above
# HLA-B*08:01 = assay: as above; details: source organism: Hepatitis C virus (isolate H)
# HLA-A*68:02 = assay: as above
# HLA-B*07:02 = assay: as above
# HLA-A*11:01 [11] = assay: as above
# HLA-B*18:01 = assay: as above; details: source organism: Hepatitis C virus (isolate H)
# HLA-A*33:01 = assay: as above
# HLA-B*51:01 [12] = assay: IEDB peptide-MHC binding, purified MHC/competitive/fluorescence; filed as Kd, often an IC50 or EC50 that approximates it; ≥ and ≤ were set here for values at or beyond the usual limits of such assays; details: source organism: Rickettsia felis URRWXCal2
# HLA-A*03:01 [13] = assay: as above; details: source organism: Bacillus cereus G9241
# HLA-A*24:03 = assay: as above; details: source organism: Bacillus anthracis str. A0488
# [14] = source organism: Yersinia pestis Antiqua
# [15] = source organism: Escherichia coli O157:H7
# [16] = source organism: Hepatitis C virus (isolate H)
# [17] = source organism: Vaccinia virus WR
# [18] = source organism: Yersinia enterocolitica
sequence,measurement,setting,value
FASSRMSTY,Kd,HLA-A*01:01 [1],979 nM
same,Kd,HLA-A*26:01,223 nM
same,Kd,HLA-B*35:01 [2],0.2 nM
same,Kd,HLA-C*12:03; [14],≤ 1 nM
GMLVGRLGK,Kd,HLA-A*31:01 [3]; source organism: Escherichia coli O157:H7 str. Sakai,13.7 nM
same,Kd,HLA-A*03:01 [4]; [15],29.3 nM
same,Kd,HLA-A*11:01 [5]; [15],191 nM
HPALVFDITK,Kd,HLA-A*01:01 [6],6400 nM
same,Kd,HLA-A*02:02; [16],≥ 47200 nM
same,Kd,HLA-B*40:02,≥ 70800 nM
same,Kd,HLA-B*44:02,≥ 70200 nM
same,Kd,HLA-B*53:01; [16],478 nM
same,Kd,HLA-A*02:06; [16],≥ 69800 nM
same,Kd,HLA-B*35:01 [7]; [16],433 nM
same,Kd,HLA-A*02:01; [16],≥ 69400 nM
same,Kd,HLA-A*03:01 [8]; [16],4200 nM
same,Kd,HLA-B*40:01,≥ 69600 nM
same,Kd,HLA-B*44:03,≥ 63300 nM
same,Kd,HLA-A*31:01 [9]; [16],≥ 70000 nM
same,Kd,HLA-B*54:01; [16],130 nM
same,Kd,HLA-B*51:01 [10]; [16],≥ 69600 nM
same,Kd,HLA-A*68:01; [16],2.32 nM
same,Kd,HLA-A*02:03; [16],7410 nM
same,Kd,HLA-B*08:01,≥ 52100 nM
same,Kd,HLA-A*68:02; [16],≥ 69800 nM
same,Kd,HLA-B*07:02; [16],3040 nM
same,Kd,HLA-A*11:01 [11]; [16],862 nM
same,Kd,HLA-B*18:01,≥ 28200 nM
same,Kd,HLA-A*33:01; [16],≥ 38400 nM
IAMESIVIW,Kd,HLA-C*12:03; source organism: Human immunodeficiency virus 1,≤ 1 nM
IAYESSNKI,Kd,HLA-B*51:01 [12],196 nM
same,Kd,HLA-C*12:03; source organism: Rickettsia felis URRWXCal2,7 nM
ILIFLRNFR,Kd,HLA-A*03:01 [13],≥ 20000 nM
same,Kd,HLA-A*31:01 [3]; source organism: Bacillus cereus G9241,5.1 nM
KLAETRMGY,Kd,HLA-A*31:01 [3]; source organism: Escherichia coli,153 nM
same,Kd,HLA-A*03:01 [4]; [15],71.1 nM
same,Kd,HLA-A*11:01 [5]; [15],932 nM
KVFSFWLLCK,Kd,HLA-A*02:02; [17],4250 nM
same,Kd,HLA-B*53:01; [17],2340 nM
same,Kd,HLA-A*02:06; [17],8660 nM
same,Kd,HLA-B*35:01 [7]; [17],≥ 47400 nM
same,Kd,HLA-A*02:01; [17],1190 nM
same,Kd,HLA-A*03:01 [8]; [17],6.3 nM
same,Kd,HLA-A*31:01 [9]; [17],9.25 nM
same,Kd,HLA-B*54:01; [17],2550 nM
same,Kd,HLA-B*51:01 [10]; [17],17000 nM
same,Kd,HLA-A*68:01; [17],42.8 nM
same,Kd,HLA-A*02:03; [17],3360 nM
same,Kd,HLA-A*68:02; [17],≥ 49400 nM
same,Kd,HLA-B*07:02; [17],≥ 44900 nM
same,Kd,HLA-A*11:01 [11]; [17],3.27 nM
same,Kd,HLA-A*33:01; [17],863 nM
QFMEGIYKL,Kd,HLA-A*24:03,4.1 nM
RAFKYPFIK,Kd,HLA-A*31:01 [3]; source organism: Fowlpox virus,60 nM
same,Kd,HLA-A*03:01 [4]; source organism: Fowlpox virus,6.8 nM
same,Kd,HLA-A*11:01 [5]; source organism: Fowlpox virus,1.7 nM
TFMIITSTK,Kd,HLA-A*02:02; [17],≥ 63700 nM
same,Kd,HLA-B*53:01; [17],≥ 78200 nM
same,Kd,HLA-A*02:06; [17],≥ 77100 nM
same,Kd,HLA-B*35:01 [7]; [17],19700 nM
same,Kd,HLA-A*02:01; [17],≥ 78100 nM
same,Kd,HLA-A*03:01 [8]; [17],404 nM
same,Kd,HLA-A*31:01 [9]; [17],367 nM
same,Kd,HLA-B*54:01; [17],≥ 42600 nM
same,Kd,HLA-B*51:01 [10]; [17],≥ 77500 nM
same,Kd,HLA-A*68:01; [17],104 nM
same,Kd,HLA-A*02:03; [17],≥ 30800 nM
same,Kd,HLA-A*68:02; [17],≥ 76900 nM
same,Kd,HLA-B*07:02; [17],≥ 77500 nM
same,Kd,HLA-A*11:01 [11]; [17],189 nM
same,Kd,HLA-A*33:01; [17],619 nM
TVWNRLIAR,Kd,HLA-A*31:01 [3]; [14],≤ 1 nM
same,Kd,HLA-A*03:01 [4]; [18],39.3 nM
same,Kd,HLA-A*11:01 [5]; [18],32.6 nM
